± gives the uncertainty stated by the source.

B1: POU domain, class 3, transcription factor 2, residues 262 to 338; numbered along this chain, P20265 (parent)
chain: EDTPTSDDLEQFAKQFKQRRIKLGFTQADVGLALGTLYGNVFSQTTICRFEALQLSFKNMCKLKPLLNKWLEEADSS

This data set covers variants of B1. Description: abundance fitness (aPCA) (normalised: wild type 0, dead -1); higher = more abundant; growth selection in yeast, the domain comes from the species named. The settings on record: Homo sapiens.
As to EDTPTSDDLEQFAKQFKQRRIKLGFTQADVGLALGTLYGNVFSQTTICRFEALQLSFKNMCKLKPLLNKWEEEADSS [L71E], the abundance fitness is -0.598 ± 0.49.
The value for EDTPTSDDLEQFAKQFKQRRIKLGFTQADVGLALGTLYGNVFSQTTICRFEALQLSFKNMCKLKPLLNKWCEEADSS [L71C] was -0.847 ± 0.37.
On to EDTPTSDDLEQFAKQFKQRRIKLGFTQADVGLALGTLYGNVFSQTTICRFEALQLSFKNMCKLKPLLNKWMEEADSS [L71M], for which the abundance fitness came to 0.067 ± 0.12.
With EDTPTSDDLEQFAKQFKQRRIKLGFTQADVGLALGTLYGNVFSQTTICRFEALQLSFKNMCKLKPLLNKWIEEADSS [L71I] the figure was -0.422 ± 0.37; with EDTPTSDDLEQFAKQFKQRRIKLGFTQADVGLALGTLYGNVFSQTTICRFEALQLSFKNMCKLKPLLNKWGEEADSS [L71G], -0.445 ± 0.088; with EDTPTSDDLEQFAKQFKQRRIKLGFTQADVGLALGTLYGNVFSQTTICRFEALQLSFKNMCKLKPLLNKWWEEADSS [L71W], -0.465 ± 0.12.
In the case of EDTPTSDDLEQFAKQFKQRRIKLGFTQADVGLALGTLYGNVFSQTTICRFEALQLSFKNMCKLKPLLNKWREEADSS [L71R], the abundance fitness is -0.427 ± 0.077.
Consider EDTPTSDDLEQFAKQFKQRRIKLGFTQADVGLALGTLYGNVFSQTTICRFEALQLSFKNMCKLKPLLNKWKEEADSS [L71K], for which the abundance fitness was -0.559 ± 0.2.
In the case of EDTPTSDDLEQFAKQFKQRRIKLGFTQADVGLALGTLYGNVFSQTTICRFEALQLSFKNMCKLKPLLNKWFEEADSS [L71F], the abundance fitness is -0.699 ± 0.22.
As for EDTPTSDDLEQFAKQFKQRRIKLGFTQADVGLALGTLYGNVFSQTTICRFEALQLSFKNMCKLKPLLNKWYEEADSS [L71Y], the abundance fitness is -0.168 ± 0.17.
The value for EDTPTSDDLEQFAKQFKQRRIKLGFTQADVGLALGTLYGNVFSQTTICRFEALQLSFKNMCKLKPLLNKWAEEADSS [L71A] was -0.504 ± 0.16; that for EDTPTSDDLEQFAKQFKQRRIKLGFTQADVGLALGTLYGNVFSQTTICRFEALQLSFKNMCKLKPLLNKWVEEADSS [L71V] was -0.089 ± 0.12; that for EDTPTSDDLEQFAKQFKQRRIKLGFTQADVGLALGTLYGNVFSQTTICRFEALQLSFKNMCKLKPLLNKWSEEADSS [L71S] was -0.207 ± 0.075.
For EDTPTSDDLEQFAKQFKQRRIKLGFTQADVGLALGTLYGNVFSQTTICRFEALQLSFKNMCKLKPLLNKWLEQADSS [E73Q], the abundance fitness is 0.159 ± 0.098.
The value for EDTPTSDDLEQFAKQFKQRRIKLGFTQADVGLALGTLYGNVFSQTTICRFEALQLSFKNMCKLKPLLNKWLELADSS [E73L] was -0.013 ± 0.06; that for EDTPTSDDLEQFAKQFKQRRIKLGFTQADVGLALGTLYGNVFSQTTICRFEALQLSFKNMCKLKPLLNKWLEAADSS [E73A] was -0.145 ± 0.081.
EDTPTSDDLEQFAKQFKQRRIKLGFTQADVGLALGTLYGNVFSQTTICRFEALQLSFKNMCKLKPLLNKWLEHADSS [E73H]: the abundance fitness is -0.218 ± 0.27.
Consider EDTPTSDDLEQFAKQFKQRRIKLGFTQADVGLALGTLYGNVFSQTTICRFEALQLSFKNMCKLKPLLNKWLEKADSS [E73K], for which the abundance fitness came to 0.118 ± 0.089.
Regarding EDTPTSDDLEQFAKQFKQRRIKLGFTQADVGLALGTLYGNVFSQTTICRFEALQLSFKNMCKLKPLLNKWLETADSS [E73T], the abundance fitness stood at 0.089 ± 0.073.
The value for EDTPTSDDLEQFAKQFKQRRIKLGFTQADVGLALGTLYGNVFSQTTICRFEALQLSFKNMCKLKPLLNKWLEFADSS [E73F] was -0.057 ± 0.14; that for EDTPTSDDLEQFAKQFKQRRIKLGFTQADVGLALGTLYGNVFSQTTICRFEALQLSFKNMCKLKPLLNKWLEYADSS [E73Y] was 0.129 ± 0.14; that for EDTPTSDDLEQFAKQFKQRRIKLGFTQADVGLALGTLYGNVFSQTTICRFEALQLSFKNMCKLKPLLNKWLEDADSS [E73D] was 0.06 ± 0.1.
Regarding EDTPTSDDLEQFAKQFKQRRIKLGFTQADVGLALGTLYGNVFSQTTICRFEALQLSFKNMCKLKPLLNKWLEVADSS [E73V], the abundance fitness is -0.067 ± 0.073.
Take EDTPTSDDLEQFAKQFKQRRIKLGFTQADVGLALGTLYGNVFSQTTICRFEALQLSFKNMCKLKPLLNKWLENADSS [E73N]: the abundance fitness is -0.192 ± 0.34.
With EDTPTSDDLEQFAKQFKQRRIKLGFTQADVGLALGTLYGNVFSQTTICRFEALQLSFKNMCKLKPLLNKWLECADSS [E73C] the figure was 0.024 ± 0.12; with EDTPTSDDLEQFAKQFKQRRIKLGFTQADVGLALGTLYGNVFSQTTICRFEALQLSFKNMCKLKPLLNKWLEWADSS [E73W], -0.076 ± 0.073.
The value for EDTPTSDDLEQFAKQFKQRRIKLGFTQADVGLALGTLYGNVFSQTTICRFEALQLSFKNMCKLKPLLNKWLEGADSS [E73G] was -0.036 ± 0.05; that for EDTPTSDDLEQFAKQFKQRRIKLGFTQADVGLALGTLYGNVFSQTTICRFEALQLSFKNMCKLKPLLNKWLESADSS [E73S] was -0.071 ± 0.068; that for EDTPTSDDLEQFAKQFKQRRIKLGFTQADVGLALGTLYGNVFSQTTICRFEALQLSFKNMCKLKPLLNKWLERADSS [E73R] was -0.147 ± 0.066.
The value for EDTPTSDDLEQFAKQFKQRRIKLGFTQADVGLALGTLYGNVFSQTTICRFEALQLSFKNMCKLKPLLNKWLEPADSS [E73P] was -0.416 ± 0.17; that for EDTPTSDDLEQFAKQFKQRRIKLGFTQADVGLALGTLYGNVFSQTTICRFEALQLSFKNMCKLKPLLNKWLEIADSS [E73I] was -0.009 ± 0.12; that for EDTPTSDDLEQFAKQFKQRRIKLGFTQADVGLALGTLYGNVFSQTTICRFEALQLSFKNMCKLKPLLNKWLEESDSS [A74S] was -0.168 ± 0.039.
EDTPTSDDLEQFAKQFKQRRIKLGFTQADVGLALGTLYGNVFSQTTICRFEALQLSFKNMCKLKPLLNKWLEEYDSS [A74Y]: the abundance fitness is -0.151 ± 0.069.
With EDTPTSDDLEQFAKQFKQRRIKLGFTQADVGLALGTLYGNVFSQTTICRFEALQLSFKNMCKLKPLLNKWLEEQDSS [A74Q] the figure was -0.046 ± 0.055; with EDTPTSDDLEQFAKQFKQRRIKLGFTQADVGLALGTLYGNVFSQTTICRFEALQLSFKNMCKLKPLLNKWLEELDSS [A74L], -0.09 ± 0.037.

The record behind these values is the Human Domainome abundance scans (Beltran et al. 2025).
